We go through one sequence from publication PMC3576267.

In series [1] the test system is GST-UtroUp (six zinc finger artificial transcription factor) (synthetic construct). Nature of the series: EMSA. Particulars: 50 uM ZnCl2; 1-90 nM protein; mean of five experiments; EMSA: 20 mM Hepes pH 7.5, 0.5 mM DTT, 100 mM NaCl, 50 uM ZnCl2, 50 ug/ml BSA, 100 ng poly(dI-dC), 0.05% NP40, 5% glycerol; temperature not stated. On the technique in general: A gel shift assay detects complexes by their altered migration in electrophoresis.

The test system of series [2] is GST-Jazz (three zinc finger artificial transcription factor) (synthetic construct). Nature of the series: EMSA. The following applies: 50 uM ZnCl2; 5-96 nM protein; at 12 nM shift weaker than GST-UtroUp (Fig. 2C); EMSA: 20 mM Hepes pH 7.5, 0.5 mM DTT, 100 mM NaCl, 50 uM ZnCl2, 50 ug/ml BSA, 100 ng poly(dI-dC), 0.05% NP40, 5% glycerol; temperature not stated.

Usually Kd stands for the free concentration of one partner at which half of the binding sites on the other are occupied at equilibrium, for simple one-to-one binding. Consider “ATTAAGCCGGGCTGCTGCGGGCTGGGAGTATGATCC (double strand) [WT UtroUp (UtroUp-Jazz) DNA target]”, for which the Kd in series [1] was 3.5 nM; in series [2], 32 nM.
